In patent US20250236653A1:

How the values were obtained:
human OX40 (human) [1] = target: human OX40 (human) (UniProt P43489); experiment: flow cytometry, traditional IgG1 bivalent mAb on hOX40-Jurkat-NF-κB cells, APC anti-human IgG Fc detection
[2] = target: cynomolgus monkey OX40 (cynomolgus monkey); experiment: flow cytometry on cOX40-Jurkat-NF-κB cells
human OX40 (human) [3] = target: human OX40 (human) (UniProt P43489); experiment: cell-based or functional assay

human OX40 (human), sequence (P43489 29-277): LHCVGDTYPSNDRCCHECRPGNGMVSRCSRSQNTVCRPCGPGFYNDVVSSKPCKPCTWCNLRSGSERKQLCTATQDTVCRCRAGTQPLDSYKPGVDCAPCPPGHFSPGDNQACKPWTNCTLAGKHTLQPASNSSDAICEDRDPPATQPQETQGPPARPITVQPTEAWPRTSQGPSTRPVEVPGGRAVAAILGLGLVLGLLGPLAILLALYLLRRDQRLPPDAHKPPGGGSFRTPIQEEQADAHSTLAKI

EC50 (human OX40 (human) [1]): 10.2 nM
fold difference of EC50 against hOX40-Jurkat-NF-κB cells [2]: < 2 fold
percentage of GFP positive hOX40/hIL-12R/Jurkat-NF-κB reporter cells in the presence of A20-hFcγRI cells, EC50 (human OX40 (human) [3]): 0.13 nM
B1: hG1-20E5 (antibody, from another filing, V domains shown)
VH: EVQLQQSGPELVKPGASVKMSCKASGYTFTSYVMHWVKQKPGQGLEWIGYINPYNDGTKYNEKFKGKATLTSDKSSSTAYMELSSLTSEDSAVYYCANYYGSSLSMDYWGQGTSVTVSS
VL: DIQMTQTTSSLSASLGDRVTISCRASQDISNYLNWYQQKPDGTVKLLIYYTSRLHSGVPSRFSGSGSGTDYSLTISNLEQEDIATYFCQQGNTLPWTFGGGTKLEIKR
